B1: Coronin-1A (Mus musculus), O89053 (parent)
chain: MSRQVVRSSKFRHVFGQPAKADQCYEDVRVSQTTWDSGFCAVNPKFMALICEASGGGAFLVLPLGKTGRVDKNVPLVCGHTAPVLDIAWCPHNDNVIASGSEDCTVMVWEIPDGGLVLPLREPVITLEGHTKRVGIVAWHPTAQNVLLSAGCDNVILVWDVGTGAAVLTLGPDVHPDTIYSVDWSRDGALICTSCRDKRVRVIEPRKGTVVAEKDRPHEGTRPVHAVFVSEGKILTTGFSRMSERQVALWDTKHLEEPLSLQELDTSSGVLLPFFDPDTNIVYLCGKGDSSIRYFEITSEAPFLHYLSMFSSKESQRGMGYMPKRGLEVNKCEIARFYKLHERKCEPIAMTVPRKSDLFQEDLYPPTAGPDPALTAEEWLGGRDAGPLLISLKDGYVPPKSRELRVNRGLDSARRRATPEPSGTPSSDTVSRLEEDVRNLNAIVQKLQERLDRLEETVQAK

Variants of: B1
Details: with gnas2_human GNAS

| effect of a mutation on the interaction | Variant |
| --- | --- |
| disrupting interaction | T418A;T424A |
| decreasing interaction | T424A |
| decreasing interaction | T418A |

Variants of: B1
Details: with gnas2_human GNAS
Remark: another data set of the same source

| effect of a mutation on the interaction | Variant |
| --- | --- |
| disrupting interaction | T418E;T424E |

From IntAct's records for PubMed 26823173
